Assay: label from the status in PepcDB records
With “APLPVIFIPGIMGTNLRNKADKSEVWRPPNGLWPMDDLFASIGALWTWAWRGPKARQELLKAEQVEVDDQGTIDVGQSGLSEEAARLRGWGKVMRSAYNPVMGLMERRLDNIVSRRELQAWWNDEALSPPGDQGEEQGKVGPIDEEELLRASRYQFDVWCAGYNWLQSNRQSALDVRDYIENTVLPFYQKECGLDPEQMRRMK” the protein production was “failed”. In the case of “APRSVAMVVPQGSDIRQLSDLRGKRIALNKGSNVHWLLLQILEDAGLGLNDVRVVYTPPKYPLTASDYLAVDAWMMWDPLLSDAEHTGELRVVASGEGRVNNHQFYLSRRDYLAQHGDIMRRLLTELTHTGQFIDSHRGEAARLLSAELGI”, the protein production is reported as “failed”. In the case of “AQAALEASEEKFAKAFHSSPDSITITEIESGRYVEVNDGFCRLTGFSAREVLGRTAHEIGIWTDTVQREFMIDELRQKGRMHHREMNGRDKKGAPLVLDVSVEFITLNNTACLLMNARDIG”, the protein production is reported as “failed”. For “AQELAHKINHIVASRPATAAMLQEIAHLVGTATNVDCCCLVTVTNEESTETTTANWCSDEFLGVPLSNEMFSTERFLMELPVLQCAVEPRNIDEISIIRNSLVVGCQHLPLPIKAVLAISTRFGGKTNGVISLIKFQSHDWDDSAKNILKTIEASCAIAFSQLTQAQLISSQQQHLQ”, the protein production was “failed”. With “AQIPQQIKGVICINAGGGIYLKEAFEQFRVAGQRFLQVRPRWLSQVPLIDLLFTRASVSRPLDRQWARQRVIDFVVADPEAALGALLDSTTEDEVNRLPKLVSQLKQPVYFLAGTDDKVMEPKYVRHLASFHPLFQYCGDNVIEIPDCGHLAMLEQPDAVASHIKSLV” the protein production was “failed”. For “ARDPAKLKQVAGQPRLREAVIRLMRGTDVIRVKMYALNGITLFSTDASQIGEDESDDDGFRSAAAGTPASELAHNHSIDAFERTLTDRDIISTYVPVHDPAGKIEGVLEIYLDATPFVADSDQQ”, the protein production was “failed”. With “ARFMAVSSELKDDTRTYTVAGQVFFASSDRFMSHFDFREAVERVVIDVTHAHFWDITSVSALDRVVIKFRREGTEVEIKGMNDATRTLVDRFGVHDKPEEVEKLMGGH” the protein production was “not failed”. In the case of “ARFYSDGLKLAGTLFVPDDYEPGQKRPAVLICHGRFAIKEWVPSRWTPHFLAAGYVCMVFDYRNLGESEGTPGRIIPDEEVRDARHALTYLQCQPEVDPARIGALGWGLGGGVAVSAAAHDARIKAVVCAIGVANGGRYGRVGMSDAAWAARQEQIAADRRERVLTGRSARLPRTEILGRPDAQRAERHERQNWIDSLVAAVGPERAADPAKLGIPDEITLESMEALYDFAPDAVVDRIAPRPLLIVHARDDHEFPFEHAADMYERAAQPKQLIAVEDAGHLDWIDPAHPSQQVYVPQVVAWMQAQL”, the protein production is reported as “not failed”. In the case of “ARPCIPKSFGYSSVVCVCNATYCDSFDPPTFPALGTFSRYESTRSGRRMELSMGPIQANHTGTGLLLTLQPEQKFQKVKGFGGAMTDAAALNILALSPPAQNLLLKSYFSEEGIGYNIIRVPMASCDFSIRTYTYADTPDDFQLHNFSLPEEDTKLKIPLIHRALQLAQRPVSLLASPWTSPTWLKTNGAVNGKGSLKGQPGDIYHQTWARYFVKFLDAYAEHKLQFWAVTAENEPSAGLLSGYPFQCLGFTPEHQRDFIARDLGPTLANSTHHNVRLLMLDDQRLLLPHWAKVVLTDPEAAKYVHGIAVHWYLDFLAPAKATLGETHRLFPNTMLFASEACVGSKFWEQSVRLGSWDRGMQYSHSIITNLLYHVVGWTDWNLALNPEGGPNWVRNFVDSPIIVDITKDTFYKQPMFYHLGHFSKFIPEGSQRVGLVASQKNDLDAVALMHPDGSAVVVVLNRSSKDVPLTIKDPAVGFLETISPGYSIHTYLWHRQ”, the protein production is reported as “not failed”. In the case of “ASDFQTGIHKIVIQQSGDTDSFEVSVSIGGADKGGPAKLYNDKGEYIGDSYSAQIRTATMSCCTNGNAFFMTCAGSVSSISEAGKRLHITVIGYIDDKEVNRLEKEYITDGNTLIETFSVSTKEI”, the protein production is reported as “not failed”. In the case of “ASDSAFTYNGVSITRPTNEVNDVISGVNITLEQTTEPNKPAIISVSRDNQAIIDSLTEFVKAYNELIPKLDEDTRYDADTKIAGIFNGVGDIRAIRSSLNNVFSYSVHTDNGVESLMKYGLSLDDKGVMSLDEAKLSSALNSNPKATQDFFYGSDSKDMGGREIHQEGIFSKFNQVIANLIDGGNAKLKIYEDSLDRDAKSLTKDKENAQELLKTRYNIMADVLPLMIAKSLKPIKNSIPCK”, the protein production is reported as “failed”. With “ASKAFYSAGDKLFQPGDDAVASMQTYSVAQFLQPFTLNPAKASSDYLGKWVKVRGVIVDIRRKSGIAGSYYFIVTMRDEQNKTDKRLTFNFGSHNSADVEALSNGSVATIVGQVHQVQDSTIPTLQNPKVVK” the protein production was “not failed”. With “ATHIIFTTHENSDGDGLGSQVALALALKALGKEVAIFNPTEVPPNYLFLKELHEINLFRDRDEESMQEFFLADLLVVLDANLHDRIGRLWPHVEFARQMSRLKVLCIDHHLEPEDFADITVCETYASSTGELVCDLVTALELRTGQQLFTPEVASALYAAIMTDTGSFRFPKTTPYTYRLAGMLVEKGADPELVYDRIYNAL” the protein production was “failed”. For “AVGKNKGLSKGGKKGGKKKVVDPFSRKDWYDVKAPNMFQTRQIGKTLVNRTQGQRIASDYLKGRVFEVSLADLQKDIDPERSFRKFRLIAEDVQDRNVLCNFHGMDLTTDKYRSMVKKWQTLIEAIVEAKTVDGYLLRVFCIGFTAKDQQSQRKTCYAQQSQVRKIRARMTDIITNEVSGADLKQLVNKLALDSIAKDIEKSCQRIYPLHDVYIRKVKVLKKPRFDVSKLLELHGDGGGKSVEAVVSSEGAVIDRPEGYEPPVQESV”, the protein production was “failed”. In the case of “AVSFTGVSGVKNIVAVTACPTGVAHTFMSAEAIEAYAKKQGWNVKVETRGQVGAGNEITVEEVAAADLVFVAADIDVPLDKFKGKPMYRTSTGLALKKTEQEFDKAFKEAKIF”, the protein production is reported as “failed”. With “CPLLLRVFTTNNGRHHRMDEFSRGNVPSSELQIYTWMDATLKELTSLVKEVYPEARKKGTHFNFAIVFTDVKRPGYRVKEIGSTMSGRKGTDDSMTLQSQKFQIGDYLDIAIT” the protein production was “failed”. In the case of “DCYKNFVAKKCAGCKNPITGFGKGSSVVAYEGQSWHDYCFHCKKCSVNLANKRFVFHQEQVYCPDCAKKL”, the protein production is reported as “not failed”. With “DDAGKRHVYVKEIATGTVKRAIEEKDELIKGYGWINDERLFFVMDKGGNENYHLFASNIDGSNTRDLTPFDGVKASILNMLKEQKDYMIISMNKNNPQIFEPYKLNVVTGELTQLYENKDAANPIQGYEFDKDGELRGYSRLVNGIESELYYKDLATGEFRLLKKTHWDDTFGVIAFNYASKNKDEAYVLTNLDSDKTRIVLYDLKQNKIIREIFANEDYDVSGLHLSRKRNYEIDLMAYEGEKSVVVPVSATYKELHKLMEKEFKGKEFSVVDYDDDETILLIAVQSDKLYGTYYQFDTRTKKFTLLYDLMPQLKEEDMAEMRPIKFKSRDGLTIHGYITLPKAALEGKKVPLIVNPHGGPQGIRDSWGFNPETQLFASRGYATLQVNFRISGGYGKEFLRAGFKQIGRKAMDDVEDGVRYAISQGWVDPDRIAIYGASHGGYATLMGLVKTPDLYACGVDYVGVSNIYTFFDSFPEYWKPFKEMVKEIWYDLDNPEEAAIAKEVSPFFQIDKINKPLFVVQGANDPRVNINESDQIVTALRARGFEVPYMVKYNEGHGFHREENSMELYRAMLGFFAKHLK” the protein production was “failed”. For “DDRQEEKMIKENVYFDGNVKSLGFSQQDGESTVGVMAPGQYTFGTGAPERMTVVKGALTIKRVTDADWVTFTAGEAFEVAGNSSFDLQVEVATAYLCEFL”, the protein production was “failed”. In the case of “DEIFCRVYMPDHSYVTIRSRLSASVQDILGSVTEKLQYSEEPAGREDSLILVAVSSSGEKVLLQPTEDCVFTALGINSHLFACTRDSYEALVPLPEEIQVSPGDTEI”, the protein production is reported as “not failed”. With “DFLDVQKETPRIRIAIDRVGVKNIKFPLKIHDDFAFLTLNLFVDVPADRKGADMSRAVESIQKVINAGSYGERIGDIGIAICDEALSRFNYSEKAQCEVNIQYYRRSGERYLEYRMYVETAKDRKQIMKNEIGISYVTMTACPCAMETTRALISMDNPDISDAISAIPTITHNQRNVTKLTVDNRSKMITVWDLADVMERVQGKPLDSLLKRVEEGRLVYSAHRNPKFVEDVVREIAYEAARVLGVPDEATIKVSSESDESIHPHNAYAEIDT” the protein production was “failed”. In the case of “DGKVTKVFSSPLMARVQDLSSCAFPAPRISAEKTAAHEVDKDTITYTITVRNSGNLEATGTKFTDNLPGSYVPNSAKLNG”, the protein production is reported as “failed”. In the case of “DGQTYQIGFEMRLPVSWNGRFLYQGNGGTDGNIATATGQVGSGGMLSNALKDGFAVISSDAGHSSAQNPLFGLDPQARINYGYGAITKLTPMAKDLIKTAYGKLPDRSYAGGTSNGGRHAMMAATRLGDQYDGILASTPGFHLPRAAAAQLYTAQQLRRVATDENDLSTALTYAERNVLANAILTRCDALDGVADGMVQDVEACRTAFDIHKDVPVCSGSRDGSCLSKDQIDVVANIYRGPVNSSGEALYATQPYDPGLLGSNWASWKFVSSVGTARDPVAVGIIFQVPPDPTIVQNSRKFAFNYNFDTDYPKLSATNSTYSESAMSFMIPPDELNLDKLRLHGGKMIVVQGTADGVFSVDDTQNWYDKLMAKYKSSSLGDAQSFARFYRVPGMNHSRGGLATDQFDALTALVNWVEYGQA”, the protein production is reported as “failed”. In the case of “DIEALTLLEIADPIREDAAETLEYLRSEDVTLKIISGDNPVTVSHIAHQAGFADYQSYIDCSKVSDEELEALAEDTAIFGRVSPHQKKLLIQTLNANGHTTAMTGDGVNDILALREADCSIVMAEGDPATRQIANLVLMDSEFKDIPE”, the protein production is reported as “failed”. With “DKCKKVYENYPVSKCQLANQCNYDCKLDKHARSGECFYDEKRNLQCICDYCEY” the protein production was “not failed”. In the case of “DNAMEEEIQSIMKIERDLFLAIKNKEFVIHYQPKVDSSTGNIIGSEALIRWLHPSLGMVGPNKFIPIAEKNGLINNIGRWLIQEVFITINKWISEGINVLPVSINLSRVELYKNDLVDFFKLMFNTYNIPKELIELEITETTALRDVKFISERLYEIKSLGMNISLDDFGVGNSNFINLKGIPLDIIKIDRSLILDIVTNTKTKFMVKAIVNLSHDLNVTVICEGVEDMHQVKVLSELGCNFIQGYVFFKP”, the protein production is reported as “failed”. In the case of “DNDAIYYPVGDVDIERGGPALEVGEEDVLVARSFNEEDYVLDTIAQYPNDPTLGKLTFMIDLKNQQKDQNVADFNGVGKSKLTMSLGYKDGNYPSESQVPIYTSQDVTAKYAVKLRLKGELLVSGDEWMIDYVYAQLASLFQPYPPANFPEVFMCKGGMKLGTFDSFRRTCTFDITYDRSDLSFSQLYFNLFINLAGQKRENRVRLRIDKESYFELYEQSEEM”, the protein production is reported as “not failed”. For “DPAVLLDRAGRVIHLNAAAAQLAPALRVRELAQFALRSPEIVTALREAIATSEPRRVTYLDHGSIERWLELIIAPVQVPTAFGGTDQCMLMTFHDLTPLRRVEEMRADFVANASHELRTPLAALSGFIDTLQGQAR”, the protein production was “failed”. In the case of “DPEEIMQVAVEKLGQGLGICRCVIYRCSADDTVATINHEFLGSGVGSIKGYPWPLKDNPLFQEVVVLKEAIAIDNIDRDPRLGEPEPSTGEVKTLVKSCAILSWMLVPIFYRERLLGMMEFHHCGPAPTEWEDDALTLVEGVATQIGVALIQAESYANLQELNEQLAALDRTRSNLVAITGHELRTP”, the protein production is reported as “failed”. In the case of “DRCYNCGGLDHHAKECKLPPQPKKCHFCQSISHMVASCPLKAQQGPSAQG”, the protein production is reported as “not failed”. In the case of “DREREQHKREEAIQNFKALLSDMVRSSDVSWSDTRRTLRKDHRWESGSLLEREEKEKLFNEHIEALTKKKRE”, the protein production is reported as “not failed”. In the case of “DTPEPYSEQDLWDWLRNSTDLQEPRPRAKRRPIVKTGKFKKMFGWGDFHSNIKTVKLNLLITGKIVDHGNGTFSVYFRHNSTGQGNVSVSLVPPTKIVEFDLAQQTVIDAKDSKSFNCRIEYEKVDKATKNTLCNYDPSKTCYQEQTQSHVSWLCSKPFKVICIYISFYSTDYKLVQKVCPDYNYHSDTPYFPSG”, the protein production is reported as “failed”.

Source: a protein production outcome set (Wang et al. 2014)
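Also: failed if final PepcDB status was selected cloned or expressed and not failed if soluble or beyond.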
